Residue numbers refer to the chain shown, from its start. Names may count otherwise.
T1: human MSR1 extracellular domain expressed with a N-terminal nonahistidine tag (His9-hMSR1); R&D Systems, Cat … (human, UniProt P21757 77-451)
T1 construct: extracellular domain; Bought reagent; also called His-hMSR1; 9xHis-hMSR1
T1 sequence: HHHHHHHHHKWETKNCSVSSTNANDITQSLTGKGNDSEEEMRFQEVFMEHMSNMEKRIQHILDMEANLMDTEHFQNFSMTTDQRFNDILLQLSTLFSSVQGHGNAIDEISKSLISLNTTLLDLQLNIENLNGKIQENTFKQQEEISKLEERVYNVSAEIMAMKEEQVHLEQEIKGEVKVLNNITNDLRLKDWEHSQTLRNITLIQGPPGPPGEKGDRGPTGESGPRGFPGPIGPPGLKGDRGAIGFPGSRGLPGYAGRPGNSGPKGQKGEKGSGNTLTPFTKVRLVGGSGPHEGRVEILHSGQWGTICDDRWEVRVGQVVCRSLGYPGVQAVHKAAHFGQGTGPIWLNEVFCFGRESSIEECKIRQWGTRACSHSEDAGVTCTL

B1: H1H27751P-N297Q (antibody, human IgG1, V domains shown)
VH: EVQLVESGGGLVQPGGSLRLSCAASGFTFSNYAMHWVRQAPGKGLEYVSAISSNGGSTYYADSVKGRITISRDNSKNTLYLQMGSLRAEDMAVYYCARGRPYYYYFGMDVWGQGTTVTVSS
VL: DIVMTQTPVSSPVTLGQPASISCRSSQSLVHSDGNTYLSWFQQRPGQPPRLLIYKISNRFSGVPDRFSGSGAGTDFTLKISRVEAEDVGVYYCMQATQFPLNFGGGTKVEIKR
notes: human IgG1 Fc with N297Q (EU)
B2: H1H27751P-N297Q-LP1 (antibody, human IgG1, V domains shown)
VH: B1 VH
VL: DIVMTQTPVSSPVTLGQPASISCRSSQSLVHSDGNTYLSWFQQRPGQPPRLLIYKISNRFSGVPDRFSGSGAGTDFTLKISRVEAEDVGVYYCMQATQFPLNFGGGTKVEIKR
modifications: LXR agonist linker-payload LP1 clicked to azido-PEG3-amine on Q295 and Q297 (EU) of the heavy chain constant region
notes: antibody-drug conjugate; human IgG1 Fc with N297Q (EU)
B3: H1H27739P-N297Q (antibody, human IgG1, V domains shown)
VH: EVQLVESGGGLVQPGGSLRLSCTASGFTFSSYAMSWVRQAPGKGLEWVSAISGTGSSTYFTDSVKGRFAISRDNSKNTLYLQMNSLRAEDTAVYYCAKDGEWLSTVTLFDYWGQGTLVTVSS
VL: EIVMTQSPATLSVSPGERATLSCRASQSVSSNLAWYQQKPGQAPRLLIYGASTRATGIPARFSGSGSGTDFTLTISSLQSEDFALYYCQQYFIWPPHPTFGPGTKVDIKR
notes: human IgG1 Fc with N297Q (EU)
B4: H1H27739P-N297Q-LP1 (antibody, human IgG1, V domains shown)
VH: B3 VH
VL: B3 VL
modifications: LXR agonist linker-payload LP1 clicked to azido-PEG3-amine on Q295 and Q297 (EU) of the heavy chain constant region
notes: antibody-drug conjugate; human IgG1 Fc with N297Q (EU); also called H1H27739P-LP1
B5: H1H27756P-N297Q (antibody, human IgG1, V domains shown)
VH: QVQLVESGGGVVQPGRSLRLSCAASGFTFSNYDMHWVRQAPGKGLEWMAVISYDGINKYYADSVKGRFTISRDNSKNTLYLQMNSLRAEDTAVYYCAKGTYSWYFDLWGRGTLVTVSS
VL: not shown
notes: human IgG1 Fc with N297Q (EU)
B6: H1H27756P-N297Q-LP1 (antibody, human IgG1, V domains shown)
VH: B5 VH
VL: not shown
modifications: LXR agonist linker-payload LP1 clicked to azido-PEG3-amine on Q295 and Q297 (EU) of the heavy chain constant region
notes: antibody-drug conjugate; human IgG1 Fc with N297Q (EU); also called H1H27756P-LP1
B7: H1H27761P-N297Q (antibody, human IgG1, V domains shown)
VH: EVQLVESGGDLVQPGGSLRLSCSASGFTFNIYAMSWVRQAPGKGLEWVSGISGSGGSTYYADSVKGRFTISRDNSKNTLYFQMNSLRVEDTAVYYCAKKISSSSYYYYAMDVWGQGTTVTVSS
VL: not shown
notes: human IgG1 Fc with N297Q (EU); also called H1H27761P2-N297Q
B8: H1H27761P-N297Q-LP1 (antibody, human IgG1, V domains shown)
VH: B7 VH
VL: not shown
modifications: LXR agonist linker-payload LP1 clicked to azido-PEG3-amine on Q295 and Q297 (EU) of the heavy chain constant region
notes: as for B2
B9: H1H27760P-N297Q (antibody, human IgG1, V domains shown)
VH: EVQLVESGGGLVQPGRSLRLSCAASGFTFDAYAMHWVRQAPGKGLEWVSGISWNSGSIGYADSVKGRFTISRDNAKNSLYLQMNSLREEDTALYYCAKDKILELYYYGMDVWGQGTTVTVSS
VL: not shown
notes: human IgG1 Fc with N297Q (EU); also called H1H27760P2-N297Q
B10: H1H27760P-N297Q-LP1 (antibody, human IgG1, V domains shown)
VH: B9 VH
VL: not shown
modifications: LXR agonist linker-payload LP1 clicked to azido-PEG3-amine on Q295 and Q297 (EU) of the heavy chain constant region
notes: as for B2
B11: H1H27729P-N297Q (antibody, human IgG1, V domains shown)
VH: QVQLVESGGGLVKPGGSLRLSCAASGFIFSDYYMSWIRQAPGKGLEWVSYISSSGTTIYGDSVKGRFTMSRDNAKNSLYLQMNSLRAEDTAVYYCARNYALFDYWGQGTLVTVSS
VL: DIQMTQSPSSLSASVGDRVTITCQASQDISKYLNWYQQKPGKAPKLLIYYTSNLETGVPSRFSGSGSGTDFTFTISSLQPEDIATYYCHQSDYLPFTFGPGTKVDIKR
notes: human IgG1 Fc with N297Q (EU)
B12: H1H27729P-N297Q-LP1 (antibody, human IgG1, V domains shown)
VH: B11 VH
VL: B11 VL
modifications: LXR agonist linker-payload LP1 clicked to azido-PEG3-amine on Q295 and Q297 (EU) of the heavy chain constant region
notes: antibody-drug conjugate; human IgG1 Fc with N297Q (EU); also called H1H27729P-LP1
B13: H1H27766P-N297Q-LP1 (antibody, human IgG1, V domains shown)
VH: EVQLVESGGGLVQPGGSLRLSCAASGFTFSSFAMSWVRQAPGKELEWVSSISGRGGSTYYADSVRGRFTISRDNSKITLYLQMNSLRAEDTAVYYCAKDIVFRYTSSAYWYFDLWGRGTLVTVSS
VL: not shown
modifications: LXR agonist linker-payload LP1 clicked to azido-PEG3-amine on Q295 and Q297 (EU) of the heavy chain constant region
notes: antibody-drug conjugate; human IgG1 Fc with N297Q (EU); also called H1H27766P2-LP1
B14: H1H27749P-N297Q-LP1 (antibody, human IgG1, V domains shown)
VH: QVQLQESGPGLVKPSETLSLTCTVSDGSISSYYWSWIRQPPGRGLEWIGFIYYSGSTSYNPSLKSRVTISVDTSMSQFSLKLRSVTAADTAVYYCARGSPFDYWGPGTLVTVSS
VL: EIVLTQSPGTLSLSPGERATLSCRASQSVSSSYLAWYQQRPGQAPSLLISGASRRATGIPDRFSGSGSGTDFTLTIRRLEPEDFAMYYCQQYGSSPPTFGGGTKVEIKR
modifications: LXR agonist linker-payload LP1 clicked to azido-PEG3-amine on Q295 and Q297 (EU) of the heavy chain constant region
notes: antibody-drug conjugate; human IgG1 Fc with N297Q (EU); also called H1H27749P-LP1
B15: H1H27731P-N297Q (antibody, V domains shown)
VH: QLQLQESGPGLVKPSETLSLTCTVSGGSISRISYYWGWIRQPPGKGLEWIGSIYDSGSTYYNPSLKSRVTISIDTSKNQFSLKLSSVTAADTAVYYCVRYSSSSAFAFDYWGQGTLVTVSS
VL: DIQMTQSPSSVSASVGDRVTITCRASQGISSWLAWYQQKPGKAPKLLIYAASSLQSGVPSRFSGSGSGTDFTLTISSLQPEDFATYYCQQANSFPFTFGPGTKVDIKR
notes: human IgG1 Fc with N297Q (EU)
B16: H1H27747P-N297Q-LP1 (antibody, human IgG1, V domains shown)
VH: QVQLVESGGAVVQPGRSLRLSCAASGFTFSYYGMHWVRQAPGKGLEWVAVISYDGSKKYYADSVKGRFTISRDNSKNTLYLQMNSLRAEDTAVYYCAKDLTVDFYYGMDVWGQGTTVTVSS
VL: B15 VL with A51T, V58A, Y87F, F96Y, P100Q, V104L, D105E
modifications: LXR agonist linker-payload LP1 clicked to azido-PEG3-amine on Q295 and Q297 (EU) of the heavy chain constant region
notes: antibody-drug conjugate; human IgG1 Fc with N297Q (EU); also called H1H27747P-LP1
B17: H1H27734P-N297Q (antibody, human IgG1, V domains shown)
VH: EVQLVESRGGLVQPGGSLRLSCAASGFTFSSYAMSWVRQAPGKGLEWVSAISGSGGSTFYADSVKGRFTISRDNSKNTVYLQMNSLRAEDTAVYYCAKALVLRFLEWLGDYWGQGTLVTVSS
VL: DIQMTQSPSTLSASVGDRVTITCRASQSISSWLAWFQQKPGKAPKLLIYKASSLESGVPSRFSGSGSGTEFTLTISSLQPDDFATYYCQQYKSYWTFGQGTKVEIKR
notes: human IgG1 Fc with N297Q (EU)
B18: H1H27734P-N297Q-LP1 (antibody, human IgG1, V domains shown)
VH: B17 VH
VL: B17 VL
modifications: LXR agonist linker-payload LP1 clicked to azido-PEG3-amine on Q295 and Q297 (EU) of the heavy chain constant region
notes: antibody-drug conjugate; human IgG1 Fc with N297Q (EU); also called H1H27734P-LP1
B19: H1H27759P-N297Q (antibody, human IgG1, V domains shown)
VH: EVQLVESGGGFVQPGGSLRLSCAASGFTFSSYAMSWVRQAPGKGLEWVSAISGTGSNTYYADSVKGRFTISRDNSKNTLYLQMNSLRAEDTAVYYCAKDRVTTVTYYFDYWGQGTLVTVSS
VL: not shown
notes: human IgG1 Fc with N297Q (EU); also called H1H27759P2-N297Q
B20: H1H27759P-N297Q-LP1 (antibody, human IgG1, V domains shown)
VH: B19 VH
VL: not shown
modifications: LXR agonist linker-payload LP1 clicked to azido-PEG3-amine on Q295 and Q297 (EU) of the heavy chain constant region
notes: as for B2
B21: H1H27762P-N297Q (antibody, human IgG1, V domains shown)
VH: QVQLVQSGAEVKKPGSSVKVSCKASGGTFSRYDISWVRQAPGQGLEWMGGIIPIFGTSNYAQKFQGRVTITTDESTSTVYMELSSLRSEDTAVYYCARGGRYGWFDPWGQGTLVTVSS
VL: not shown
notes: human IgG1 Fc with N297Q (EU); also called H1H27762P2-N297Q
B22: H1H27762P-N297Q-LP1 (antibody, human IgG1, V domains shown)
VH: B21 VH
VL: not shown
modifications: LXR agonist linker-payload LP1 clicked to azido-PEG3-amine on Q295 and Q297 (EU) of the heavy chain constant region
notes: antibody-drug conjugate; human IgG1 Fc with N297Q (EU); also called H1H27762P2-LP1
B23: H1xH29283P2 (antibody, V domains shown)
VH: B21 VH with A9T, D33T, I34F, S58T, A97T
VL: not shown
notes: the prefix H1xH is not explained; captured by anti-human Fc

What follows are binders tested against T1, human MSR1 extracellular domain … (assay: SPR Biacore T200, 25 C, antibody captured by anti-human Fc, His9-hMSR1 injected;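 also: running buffer HBS-ET pH 7.4, rates from sensorgrams fitted to a 1:1 model including mass transport limitation, KD and half-life derived from the kinetic constants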).
Procedure: All binding studies were performed in 10 mM HEPES, 300 mM NaCl, 3 mM EDTA, and 0.05% v/v Surfactant Tween-20, pH 7.4 (HBS-ET) running buffer at 25° C.
The association rate (kₐ) and dissociation rate (kd) were determined by fitting the real-time binding sensorgrams to a 1:1 binding model with mass transport limitation using Scrubber 2.0c curve-fitting software. Binding dissociation equilibrium constant (KD) and dissociative half-life (t½) were calculated from the kinetic rates as:

Binder | Kd [nM] | koff [s⁻¹] | kon [M⁻¹ s⁻¹] | t½ [min]
B1 | 0.833 | 0.000175 | 210000 | 66.1
B2 | 0.664 | 0.000152 | 229000 | 76.1
B3 | 4.68 | 0.000555 | 119000 | 20.8
B4 | 8.14 | 0.000722 | 88800 | 16
B5 | 1.65 |  |  | 97.4
B6 | 1.76 | 0.00011 | 62700 | 105
B7 | 0.609 | 0.000362 | 595000 | 31.9
B8 | 2.02 | 0.000511 | 253000 | 22.6
B9 | 1.66 |  |  | 30.2
B10 | 1.67 | 0.000434 | 259000 | 26.6
B11 | 8.67 | 0.000906 | 105000 | 12.8
B12 | 13.1 | 0.000718 | 54700 | 16.1
B13 | 0.0649 | 2.7e-05 | 416000 | 427
B14 |  |  | 140000 | 
B15 | ≤ 0.0855 | ≤ 1e-05 | 117000 | 1160
B16 | 1.49 | 0.000203 | 136000 | 56.9
B17 | 7.72 | 0.000596 | 77200 | 19.4
B18 | 6.49 | 0.000449 | 69300 | 25.7
B19 | 4.23 | 0.000435 | 103000 | 26.6
B20 | 4.57 | 0.000595 | 130000 | 19.4
B21 | 1.38 | 0.00056 | 405000 | 20.6
B22 | 1.29 | 0.000623 | 483000 | 18.5
B23 | 13.4 | 0.00185 | 139000 | 6.2

Reference: US20190367631A1 (Regeneron, published 2019)
